B1: can9L12VH_E99A (antibody, V domains shown)
VH: EVQLVESGGDLVKPGGSLRLSCVASGFTFSSHGMHWVRQSPGKGLQWVAVINSGGSSTYYTDAVKGRFTISRDNAKNTVYLQMNSLRAEDTAMYYCAKASVGGWEQLVGPHFDYWGQGTLVIVSS
VL: QSVLTQPTSVSGSLGQRVTISCSGSTNNIGILGASWYQLFPGKAPKLLVYGNGNRPSGVPDRFSGADSGDSVTLTITGLQAEDEADYYCQSFDTTLGAHVFGGGTHLTVL
B2: can9L12VH_G103A (antibody, V domains shown)
VH: EVQLVESGGDLVKPGGSLRLSCVASGFTFSSHGMHWVRQSPGKGLQWVAVINSGGSSTYYTDAVKGRFTISRDNAKNTVYLQMNSLRAEDTAMYYCAKESVGAWEQLVGPHFDYWGQGTLVIVSS
VL: QSVLTQPTSVSGSLGQRVTISCSGSTNNIGILGASWYQLFPGKAPKLLVYGNGNRPSGVPDRFSGADSGDSVTLTITGLQAEDEADYYCQSFDTTLGAHVFGGGTHLTVL
B3: can9L12VH_G102A (antibody, V domains shown)
VH: EVQLVESGGDLVKPGGSLRLSCVASGFTFSSHGMHWVRQSPGKGLQWVAVINSGGSSTYYTDAVKGRFTISRDNAKNTVYLQMNSLRAEDTAMYYCAKESVAGWEQLVGPHFDYWGQGTLVIVSS
VL: QSVLTQPTSVSGSLGQRVTISCSGSTNNIGILGASWYQLFPGKAPKLLVYGNGNRPSGVPDRFSGADSGDSVTLTITGLQAEDEADYYCQSFDTTLGAHVFGGGTHLTVL
B4: can9L12VH_G33A (antibody, V domains shown)
VH: EVQLVESGGDLVKPGGSLRLSCVASGFTFSSHAMHWVRQSPGKGLQWVAVINSGGSSTYYTDAVKGRFTISRDNAKNTVYLQMNSLRAEDTAMYYCAKESVGGWEQLVGPHFDYWGQGTLVIVSS
VL: QSVLTQPTSVSGSLGQRVTISCSGSTNNIGILGASWYQLFPGKAPKLLVYGNGNRPSGVPDRFSGADSGDSVTLTITGLQAEDEADYYCQSFDTTLGAHVFGGGTHLTVL
B5: can9L12VH_F112A (antibody, V domains shown)
VH: EVQLVESGGDLVKPGGSLRLSCVASGFTFSSHGMHWVRQSPGKGLQWVAVINSGGSSTYYTDAVKGRFTISRDNAKNTVYLQMNSLRAEDTAMYYCAKESVGGWEQLVGPHADYWGQGTLVIVSS
VL: QSVLTQPTSVSGSLGQRVTISCSGSTNNIGILGASWYQLFPGKAPKLLVYGNGNRPSGVPDRFSGADSGDSVTLTITGLQAEDEADYYCQSFDTTLGAHVFGGGTHLTVL
B6: can9L12VH_G109A (antibody, V domains shown)
VH: EVQLVESGGDLVKPGGSLRLSCVASGFTFSSHGMHWVRQSPGKGLQWVAVINSGGSSTYYTDAVKGRFTISRDNAKNTVYLQMNSLRAEDTAMYYCAKESVGGWEQLVAPHFDYWGQGTLVIVSS
VL: QSVLTQPTSVSGSLGQRVTISCSGSTNNIGILGASWYQLFPGKAPKLLVYGNGNRPSGVPDRFSGADSGDSVTLTITGLQAEDEADYYCQSFDTTLGAHVFGGGTHLTVL
B7: can9L12VH_E105A (antibody, V domains shown)
VH: EVQLVESGGDLVKPGGSLRLSCVASGFTFSSHGMHWVRQSPGKGLQWVAVINSGGSSTYYTDAVKGRFTISRDNAKNTVYLQMNSLRAEDTAMYYCAKESVGGWAQLVGPHFDYWGQGTLVIVSS
VL: QSVLTQPTSVSGSLGQRVTISCSGSTNNIGILGASWYQLFPGKAPKLLVYGNGNRPSGVPDRFSGADSGDSVTLTITGLQAEDEADYYCQSFDTTLGAHVFGGGTHLTVL
B8: can9L12VH_G26A (antibody, V domains shown)
VH: EVQLVESGGDLVKPGGSLRLSCVASAFTFSSHGMHWVRQSPGKGLQWVAVINSGGSSTYYTDAVKGRFTISRDNAKNTVYLQMNSLRAEDTAMYYCAKESVGGWEQLVGPHFDYWGQGTLVIVSS
VL: QSVLTQPTSVSGSLGQRVTISCSGSTNNIGILGASWYQLFPGKAPKLLVYGNGNRPSGVPDRFSGADSGDSVTLTITGLQAEDEADYYCQSFDTTLGAHVFGGGTHLTVL
B9: can9L12VH_G55A (antibody, V domains shown)
VH: EVQLVESGGDLVKPGGSLRLSCVASGFTFSSHGMHWVRQSPGKGLQWVAVINSGASSTYYTDAVKGRFTISRDNAKNTVYLQMNSLRAEDTAMYYCAKESVGGWEQLVGPHFDYWGQGTLVIVSS
VL: QSVLTQPTSVSGSLGQRVTISCSGSTNNIGILGASWYQLFPGKAPKLLVYGNGNRPSGVPDRFSGADSGDSVTLTITGLQAEDEADYYCQSFDTTLGAHVFGGGTHLTVL
B10: can9L12VH_G54A (antibody, V domains shown)
VH: EVQLVESGGDLVKPGGSLRLSCVASGFTFSSHGMHWVRQSPGKGLQWVAVINSAGSSTYYTDAVKGRFTISRDNAKNTVYLQMNSLRAEDTAMYYCAKESVGGWEQLVGPHFDYWGQGTLVIVSS
VL: QSVLTQPTSVSGSLGQRVTISCSGSTNNIGILGASWYQLFPGKAPKLLVYGNGNRPSGVPDRFSGADSGDSVTLTITGLQAEDEADYYCQSFDTTLGAHVFGGGTHLTVL
B11: can9L12VH_F27A (antibody, V domains shown)
VH: EVQLVESGGDLVKPGGSLRLSCVASGATFSSHGMHWVRQSPGKGLQWVAVINSGGSSTYYTDAVKGRFTISRDNAKNTVYLQMNSLRAEDTAMYYCAKESVGGWEQLVGPHFDYWGQGTLVIVSS
VL: QSVLTQPTSVSGSLGQRVTISCSGSTNNIGILGASWYQLFPGKAPKLLVYGNGNRPSGVPDRFSGADSGDSVTLTITGLQAEDEADYYCQSFDTTLGAHVFGGGTHLTVL
B12: can9L12VH_H32A (antibody, V domains shown)
VH: EVQLVESGGDLVKPGGSLRLSCVASGFTFSSAGMHWVRQSPGKGLQWVAVINSGGSSTYYTDAVKGRFTISRDNAKNTVYLQMNSLRAEDTAMYYCAKESVGGWEQLVGPHFDYWGQGTLVIVSS
VL: QSVLTQPTSVSGSLGQRVTISCSGSTNNIGILGASWYQLFPGKAPKLLVYGNGNRPSGVPDRFSGADSGDSVTLTITGLQAEDEADYYCQSFDTTLGAHVFGGGTHLTVL
B13: can9L12VH_F29A (antibody, V domains shown)
VH: EVQLVESGGDLVKPGGSLRLSCVASGFTASSHGMHWVRQSPGKGLQWVAVINSGGSSTYYTDAVKGRFTISRDNAKNTVYLQMNSLRAEDTAMYYCAKESVGGWEQLVGPHFDYWGQGTLVIVSS
VL: QSVLTQPTSVSGSLGQRVTISCSGSTNNIGILGASWYQLFPGKAPKLLVYGNGNRPSGVPDRFSGADSGDSVTLTITGLQAEDEADYYCQSFDTTLGAHVFGGGTHLTVL

Columns and labels:
Assay in all cases: SPR (Biacore T200), 100 nM mAb on NGF chip, similarity to parent mAb
[1] = target: T1, rat NGF (rat, UniProt P25427 122-241)
T1 construct: also called rN
Text: (§1) The region of an antibody responsible for antigen recognition represents the paratope. A paratope is created by a combination of amino acids in the complementarity determining regions (CDRs) of both the heavy and light chain variable regions. The binding between antibody and antigen is often mediated by side chains of CDR residues with side chains or carbohydrate moieties of the antigen. To help define critical side chains involved in antibody recognition alanine scanning mutagenesis was performed on each CDR residue in both the heavy and light chain, the technique as described by Cunningham and Wells (1989) Science, Vol. 244, Issue 4908, pp. 1081-1085. These mutants were then individually tested for the ability to NGF using the Biacore. […] Values were then compared to the wild type antibodies and are represented in the tables as a percent of wild type binding. The data presented in Tables 4 and 5 below are shown as a “percent similarity score” compared to wild type.
(§2) The mean response unit of four replicates of the parent mAb+/−3 standard deviations was used to generate parameters to define a threshold of response units comprising both the on- and off-rates antibody binding. The percentage of data points for each mutant fell within this threshold was then used to define a “% similarity score”. […] Results from substitution of alanine at each CDR position

[2] = target: T2, canine NGF (canine, UniProt Q29074 110-229 (pig entry), limits assumed)
T2 construct: The protein was secreted from CHO cells and purified; also called cNGF; canine β-NGF
T2 chain: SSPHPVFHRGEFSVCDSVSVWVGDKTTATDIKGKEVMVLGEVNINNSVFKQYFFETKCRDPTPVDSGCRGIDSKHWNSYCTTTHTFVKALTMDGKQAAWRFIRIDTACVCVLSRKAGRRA
Text: as §1, §2

[3] = target: T3, human NGF (human, UniProt P01138 122-241)
T3 construct: also called human Nerve Growth Factor; hN
T3 chain: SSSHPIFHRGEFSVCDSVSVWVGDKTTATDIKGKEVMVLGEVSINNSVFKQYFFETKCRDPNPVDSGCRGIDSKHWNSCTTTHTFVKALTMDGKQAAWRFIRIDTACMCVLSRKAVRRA
Text: as §1, §2

T1 sequence (P25427 122-241 limits assumed): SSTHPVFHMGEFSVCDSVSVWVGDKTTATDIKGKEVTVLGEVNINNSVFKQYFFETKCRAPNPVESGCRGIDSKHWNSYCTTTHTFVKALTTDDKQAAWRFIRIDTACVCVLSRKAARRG

Row | Binder | Percent Similarity Score (KD on rN) [1] | Percent Similarity Score (KD on cN) [2] | Percent Similarity Score (KD on hN) [3]
1 | B1 | 80.5% | 97.7% | 82%
2 | B2 | 62.5% | 99.8% | 38.2%
3 | B3 | 4.7% | 11% | 3.4%
4 | B4 | 99.9% | 100% | 100%
5 | B5 | 11.8% | 28.3% | 8%
6 | B6 | 62% | 100% | 40%
7 | B7 | 100% | 100% | 98.4%
8 | B8 | 94.8% | 100% | 97.4%
9 | B9 | 99.3% | 100% | 100%
10 | B10 | 93.8% | 100% | 96.2%
11 | B11 | 100% | 100% | 100%
12 | B12 | 51.5% | 38.2% | 13.8%
13 | B13 | 99.9% | 100% | 100%

— patent publication US20210221899A1 (published 2021)
